The chains are these.
B1: JARID2 1–450 with K116me3 (within PRC2AJ1–450) (domain or fragment, UniProt Q92833 1-450, looked up)
chain: MSKERPKRNIIQKKYDDSDGIPWSEERVVRKVLYLSLKEFKNSQKRQHAEGIAGSLKTVNGLLGNDQSKGLGPASEQSENEKDDASQVSSTSNDVSSSDFEEGPSRKRPRLQAQRKFAQSQPNSPSTTPVKIVEPLLPPPATQISDLSKRKPKTEDFLTFLCLRGSPALPNSMVYFGSSQDEEEVEEEDDETEDVKTATNNASSSCQSTPRKGKTHKHVHNGHVFNGSSRSTREKEPVQKHKSKEATPAKEKHSDHRADSRREQASANHPAAAPSTGSSAKGLAATHHHPPLHRSAQDLRKQVSKVNGVTRMSSLGAGVTSAKKMREVRPSPSKTVKYTATVTKGAVTYTKAKRELVKDTKPNHHKPSSAVNHTISGKTESSNAKTRKQVLSLGGASKSTGPAVNGLKVSGRLNPKSCTKEVGGRQLREGLQLREGLRNSKRRLEEAHQA
modifications: trimethyl-lysine at K116 (JARID2 K116me3)
notes: JARID2 residues 1–450; Stood in the assay as a subunit of m1; also called JARID2 K116me3; methylated JARID2; source: Sf9 insect cells (baculovirus), purified as part of the PRC2 complex

Assay [1] has as its target T1, EZH2 (catalytic subunit, within the PRC2 complexes) (UniProt Q15910 1-746).
T1 construct: EZH2; Stood in the assay as a subunit of m1 or m2; source: Sf9 insect cells (baculovirus), purified as part of the PRC2 complex
Put plainly: cryo-EM structure; 100 nM nucleosome (biotinylated DNA, held on streptavidin affinity grids) with 500 nM PRC2 in 50 mM HEPES pH 7.5, 50 mM KCl, 0.5 mM TCEP, 100 µM S-adenosyl homocysteine; 3–5 min at room temperature. The conditions noted are these: both partners purified.

Assay [2] has as its target B1. Described as above. Conditions: both partners purified.

T1 sequence (Q15910 whole entry, one chain of several): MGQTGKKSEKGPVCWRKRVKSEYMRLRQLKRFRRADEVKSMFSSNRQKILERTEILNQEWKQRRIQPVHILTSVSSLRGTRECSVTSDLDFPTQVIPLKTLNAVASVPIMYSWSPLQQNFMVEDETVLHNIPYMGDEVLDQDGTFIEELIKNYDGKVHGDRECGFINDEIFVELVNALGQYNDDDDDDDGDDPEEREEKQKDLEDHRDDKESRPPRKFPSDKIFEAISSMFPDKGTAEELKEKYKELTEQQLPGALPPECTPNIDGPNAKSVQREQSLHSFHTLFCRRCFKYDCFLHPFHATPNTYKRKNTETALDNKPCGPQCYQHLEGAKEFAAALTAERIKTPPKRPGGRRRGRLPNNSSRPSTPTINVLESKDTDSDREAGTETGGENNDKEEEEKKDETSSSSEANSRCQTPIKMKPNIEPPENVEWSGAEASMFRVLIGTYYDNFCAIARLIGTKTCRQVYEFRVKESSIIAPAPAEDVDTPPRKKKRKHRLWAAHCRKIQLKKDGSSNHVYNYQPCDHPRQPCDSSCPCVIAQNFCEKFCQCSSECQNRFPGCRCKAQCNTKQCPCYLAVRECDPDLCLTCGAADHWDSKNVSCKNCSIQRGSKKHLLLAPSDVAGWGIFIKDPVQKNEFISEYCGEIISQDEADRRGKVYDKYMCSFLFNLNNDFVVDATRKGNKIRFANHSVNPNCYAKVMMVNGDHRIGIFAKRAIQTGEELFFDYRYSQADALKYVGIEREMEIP

For the molecule B1, the binding result in assay [1] is listed as “binds”.

B2: EED (core subunit, within the PRC2 complexes) (natural protein)
chain: not shown
notes: EED; Stood in the assay as a subunit of m1 or m2; source: Sf9 insect cells (baculovirus), purified as part of the PRC2 complex
On to B2, for which the binding result in assay [2] is given as “binds”.

Values taken from article PMC11832421, “Structural basis for the inhibition of PRC2 by active transcription histone posttranslational modifications” (Nature Structural & Molecular Biology, 2025).
